Laboratory results: patent US20210246451, “APTAMER FOR ADAMTS5 AND USE FOR APTAMER FOR ADAMTS5” (RIBOMIC INC., published 2021)

T1: ADAMTS5 (UniProt Q9UNA0 Q9UNA0:262-622)
T1 sequence: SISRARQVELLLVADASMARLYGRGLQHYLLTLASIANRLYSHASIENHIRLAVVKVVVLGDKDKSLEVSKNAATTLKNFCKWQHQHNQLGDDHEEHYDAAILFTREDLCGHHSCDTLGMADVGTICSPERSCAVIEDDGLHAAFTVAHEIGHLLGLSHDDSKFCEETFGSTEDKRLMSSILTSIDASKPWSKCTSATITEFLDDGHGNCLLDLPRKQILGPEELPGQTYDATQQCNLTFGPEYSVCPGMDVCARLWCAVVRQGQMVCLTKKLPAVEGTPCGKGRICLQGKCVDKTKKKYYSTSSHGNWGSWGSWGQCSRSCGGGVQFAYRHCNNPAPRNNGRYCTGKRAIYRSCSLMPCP


What follows are binders tested against T1, ADAMTS5 (assay: SPR; RU ratio >=40%). Conditions: tags: R&D Systems.
GGGUAUUGGGGCCUCCACAGAAAAUUCUUGGACUAAACCAACUCGA (ssRNA, 2'-F pyrimidines) [SEQ ID NO: 43]: binds. GGGUAUUGGGGCCUCCACAGAAAAGUCUUGGACUAAACCAACUCGA (ssRNA, 2'-F pyrimidines) [SEQ ID NO: 45]: binds. GGGUAUUGGGGCCUCCACAGAACUUUCUUGGACUAAACCAACUCGA (ssRNA, 2'-F pyrimidines) [SEQ ID NO: 44]: binds.

What follows are binders tested against T1, ADAMTS5 (assay: inhibition; 30 nM). Conditions: tags: R&D Systems.
Protocol: (§1) Whether an aptamer having the nucleotide sequence shown in SEQ ID NO: 1 inhibits the enzyme activity of ADAMTS5 was evaluated by the following method. As a substrate of ADAMTS5, the G1-IGD-G2 domain of aggrecan (manufactured by R&D systems) was used. ADAMTS5 specifically cleaves in between the 392nd glutamic acid and the 393rd alanine in the G1-IGD-G2 domain and produces two fragments. These fragments have faster electrophoretic mobility than uncleaved G1-IGD-G2. Thus, the enzyme activity of ADAMTS5 can be measured by quantifying the band intensity of G1-IGD-G2 by SDS-PAGE electrophoresis. The assay was performed in a solution A buffer with a reaction mixture volume of 10 μL. First, a mixture (10 μL) of a nucleic acid and ADAMTS5 was prepared and incubated at 25° C. for 15 min. To a substrate solution (5 μL) diluted with solution A was added a mixture (5 μL) of the nucleic acid and ADAMTS5 to start the enzyme reaction. The final concentration of ADAMTS5 in the reaction solution was 5 nM, and the final substrate concentration was 50 μg/mL. The reaction solution was incubated at 37° C. for 2 hr, 2 μL of solution D was added, and the mixture was heated at 95° C. for 2 min to stop the enzyme reaction of ADAMTS5. Solution D contains 0.25 M tris (pH 6.8), 10% SDS, 50% glycerol, 0.25% bromo phenolblue, and 20% 2-mercaptoethanol. The heat-treated reaction solution was electrophoresed by 7.5% SDS-PAGE and stained with SYPRO Orange (manufactured by Sigma-Aldrich). The staining was performed according to the manual of Sigma-Aldrich and detected using STORM840 manufactured by GE Healthcare. […] The amount of uncleaved substrate in each reaction solution was quantified from the band intensity and the standard curve. The substrate cleavage efficiency of ADAMTS5 under these reaction conditions was 80-100%. The inhibition rate of the test substance was calculated using the following equation.
(§2) The nucleic acids shown in SEQ ID NOs: 3(1)-3(16) were all produced by chemical synthesis. Whether these nucleic acids inhibit the enzyme activity of ADAMTS5 was determined by a method similar to that in Example 1.
Work on GGAUUGGGGCCUCCACAGCUGCUCAGCUUGGACUAAACCAAUCC (ssRNA, 2'-OMe at 1-3,42-44; 2'-F other pyrimidines) [3(1)] yielded an activity of 49.8 % inhibition. For GGAUUGGGGCCUCCACAGCUGCUCAGCUUGGACUAAACCAAUCC (ssRNA, 2'-OMe at 4-6,39-41; 2'-F other pyrimidines) [3(2)], the activity was 53.6 % inhibition. In the case of GGAUUGGGGCCUCCACAGCUGCUCAGCUUGGACUAAACCAAUCC (ssRNA, 2'-OMe at 18-20,25-27; 2'-F other pyrimidines) [3(3)], the activity is reported as 48.6 % inhibition.

Target: T1, ADAMTS5
Experiment: inhibition; 30 nM
Conditions: tags: R&D Systems
Remark: another data set of the same source
Protocol: as §1
Whether these aptamers inhibit the enzyme activity of ADAMTS5 was tested by a method similar to that in Example 1. The final concentration of the nucleic acid was fixed to 30 nM in the test.
Binder GGAUUGGGGCCUCCACAGCGUCGCUUGGACUAAACCAAUCC (ssRNA, 2'-F pyrimidines) [SEQ ID NO: 9] has an activity of 5.9 % inhibition. Binder GGCUUGGGGCCUCCACAGCUGCUCAGCUUGGACUAAACCAAGCC (ssRNA, 2'-F pyrimidines) [SEQ ID NO: 4] has an activity of 23 % inhibition. For GGCUUGGGGCCUCCACAGCUGUCAGCUUGGACUAAACCAAGCC (ssRNA, 2'-F pyrimidines) [SEQ ID NO: 6], the activity was 33.7 % inhibition. GGCUUGGGGCCUCCACAGCGCUCGCUUGGACUAAACCAAGCC (ssRNA, 2'-F pyrimidines) [SEQ ID NO: 5] was tested, and the activity was 27 % inhibition.

These binders were tested against T1, ADAMTS5 (assay: inhibition; method 1). Conditions: tags: R&D Systems.
Protocol: as §1
The aptamers having the sequences shown in SEQ ID NOs: 28(l)-28(18) (SEQ ID NO: 28 lineage) and SEQ ID NOs: 29(1)-29(3) (SEQ ID NO: 29 lineage) were all produced by chemical synthesis.
CGUAGGGGCCUCCACAGCGUAAGCUUGGACUUAAACCACG (ssRNA, as SEQ 28 plus 2'-OMe at A4) [28(2)] showed an activity of 68.7 % inhibition. In the case of CGUAGGGGCCUCCACAGCGUAAGCUUGGACUUAAACCACG (ssRNA, as SEQ 28 plus 2'-F at A29) [28(11)], the activity is reported as 42.6 % inhibition. CGUAGGGGCCUCCACAGCGUAAGCUUGGACUUAAACCACG (ssRNA, as SEQ 28 plus 2'-F at G8) [28(8)] was tested, and the activity was 71.1 % inhibition. CGUAGGGGCCUCCACAGCAUUCGCUUGGACACAAACCACG (ssRNA, as SEQ 29 plus 2'-F at G7,G28 and 2'-OMe at A31; 3' idT) [29(2)] showed an activity of 89.8 % inhibition. CGUAGGGGCCUCCACAGCGUAAGCUUGGACUUAAACCACG (ssRNA, as SEQ 28 plus 2'-F at G7) [28(7)] showed an activity of 84.1 % inhibition. For CGUAGGGGCCUCCACAGCGUAAGCUUGGACUUAAACCACG (ssRNA, as SEQ 28 plus 2'-F at A14) [28(9)], the activity was 69.7 % inhibition. With CGUAGGGGCCUCCACAGCGUAAGCUUGGACUUAAACCACG (ssRNA, as SEQ 28 plus 2'-OMe at 4,20-22,31; 3' idT) [28(13)] the activity was 86.1 % inhibition. CGUAGGGGCCUCCACAGCGUAAGCUUGGACUUAAACCACG (ssRNA, as SEQ 28 plus 2'-OMe at 4,20-22) [28(5)] showed an activity of 77.3 % inhibition. With CGUAGGGGCCUCCACAGCGUAAGCUUGGACUUAAACCACG (ssRNA, as SEQ 28 plus 2'-F at A4) [28(6)] the activity was 76.8 % inhibition. CGUAGGGGCCUCCACAGCGUAAGCUUGGACUUAAACCACG (ssRNA, as SEQ 28 plus 2'-F at A33) [28(12)] showed an activity of 67.8 % inhibition. Work on CGUAGGGGCCUCCACAGCGUAAGCUUGGACUUAAACCACG (ssRNA, as SEQ 28 plus 2'-OMe at 4,20-22,31; 2'-F at G7,G28; 3' idT) [28(14)] yielded an activity of 90.6 % inhibition. CGUAGGGGCCUCCACAGCGUAAGCUUGGACUUAAACCACG (ssRNA, as SEQ 28 plus 2'-F at G28) [28(10)] showed an activity of 76.6 % inhibition. CGUAGGGGCCUCCACAGCAUUCGCUUGGACACAAACCACG (ssRNA, as SEQ 29 plus 2'-F at G7,G28; 3' idT) [29(3)] was tested, and the activity was 80.9 % inhibition.

Each binder was assayed against T1, ADAMTS5 (assay: inhibition; 10 nM). Conditions: tags: R&D Systems.
Protocol: as §1, §2
GGAUUGGGGCCUCCACAGCUGCUCAGCUUGGACUAAACCAAUCC (ssRNA, 2'-OMe at 1-7,17-28,36,38-44; 2'-F other pyrimidines) [3(8)] showed an activity of 52.8 % inhibition. GGAUUGGGGCCUCCACAGCUGCUCAGCUUGGACUAAACCAAUCC (ssRNA, 2'-OMe at 1-7,17-28,31,36,38-44; 2'-F other pyrimidines) [3(13)] gave an activity of 37 % inhibition. For GGAUUGGGGCCUCCACAGCUGCUCAGCUUGGACUAAACCAAUCC (ssRNA, 2'-OMe at 1-7,17-28,30,36,38-44; 2'-F other pyrimidines) [3(12)], the activity was 57.5 % inhibition. GGAUUGGGGCCUCCACAGCUGCUCAGCUUGGACUAAACCAAUCC (ssRNA, 2'-OMe at 1-8,17-28,36,38-44; 2'-F other pyrimidines) [3(9)] showed an activity of 25.8 % inhibition. Work on GGAUUGGGGCCUCCACAGCUGCUCAGCUUGGACUAAACCAAUCC (ssRNA, 2'-OMe at 1-7,9,17-28,36,38-44; 2'-F other pyrimidines) [3(10)] yielded an activity of 25.6 % inhibition. Work on GGAUUGGGGCCUCCACAGCUGCUCAGCUUGGACUAAACCAAUCC (ssRNA, 2'-OMe at 1-7,17-28,35,36,38-44; 2'-F other pyrimidines) [3(15)] yielded an activity of 27.6 % inhibition. Binder GGAUUGGGGCCUCCACAGCUGCUCAGCUUGGACUAAACCAAUCC (ssRNA, 2'-OMe at 1-7,17-28,32,36,38-44; 2'-F other pyrimidines) [3(14)] has an activity of 1.2 % inhibition. GGAUUGGGGCCUCCACAGCUGCUCAGCUUGGACUAAACCAAUCC (ssRNA, 2'-OMe at 1-7,17-28,36-44; 2'-F other pyrimidines) [3(16)] showed an activity of 53.6 % inhibition. For GGAUUGGGGCCUCCACAGCUGCUCAGCUUGGACUAAACCAAUCC (ssRNA, 2'-OMe at 1-7,15,17-28,36,38-44; 2'-F other pyrimidines) [3(11)], the activity was 48.1 % inhibition.

Each binder was assayed against T1, ADAMTS5 (assay: inhibition; 10 nM aptamer, aggrecan G1-IGD-G2 cleavage, method 1). Conditions: tags: R&D Systems.
Protocol: as §1
The aptamers having the sequences shown in SEQ ID NOs: 10(1)-10(8) and 11(1)-11(35), SEQ ID NO: 13-15 were all produced by chemical synthesis.
In the case of AUUGGGGCCUCCACAGCGCUCGCUUGGACUAAACCAAU (ssRNA, 2'-OMe at 1-5,15-26,32-38; 2'-F at 8-12,14,29,30; PS between 11 and 12) [11(22)], the activity is reported as 49.8 % inhibition. With AUUGGGGCCUCCACAGCGCUCGCUUGGACUAAACCAAU (ssRNA, 2'-OMe at 1-5,15-26,32-38; 2'-F at 8-12,14,29,30; PS between 31 and 32) [11(31)] the activity was 56.3 % inhibition. AUUGGGGCCUCCACAGCGCUCGCUUGGACUAAACCAAU (ssRNA, 2'-OMe at 1-5,15-26,32-38; 2'-F at 8-12,14,29,30; PS between 13 and 14) [11(24)] showed an activity of 46.3 % inhibition. AUUGGGGCCUCCACAGCGCUCGCUUGGACUAAACCAAU (ssRNA, 2'-OMe at 1-5,15-26,32-38; 2'-F at 8-12,14,29,30; PS between 27 and 28) [11(27)] gave an activity of 48.2 % inhibition. For AUUGGGGCCUCCACAGCGCUCGCUUGGACUAAACCAAU (ssRNA, 2'-OMe at 1-5,15-26,32-38; 2'-F at 8-12,14,29,30; PS between 26 and 27) [11(26)], the activity was 47.2 % inhibition. AUUGGGGCCUCCACAGCGCUCGCUUGGACUAAACCAAU (ssRNA, 2'-OMe at 1-5,15-26,32-38; 2'-F at 8-12,14,29,30; PS between 12 and 13) [11(23)] was tested, and the activity was 47.9 % inhibition. Binder AUUGGGGCCUCCACAGCGCUCGCUUGGACUAAACCAAU (ssRNA, 2'-OMe at 1-5,15-26,32-38; 2'-F at 8-12,14,29,30; PS between 29 and 30) [11(29)] has an activity of 56.5 % inhibition. With AUUGGGGCCUCCACAGCGCUCGCUUGGACUAAACCAAU (ssRNA, 2'-OMe at 1-5,15-26,32-38; 2'-F at 8-12,14,29,30; PS between 28 and 29) [11(28)] the activity was 44.8 % inhibition.
